# Data as given in the RNAGym collection of RNA variant scans (doi:10.1073/pnas.2313332121).
# Variants at the floor of the assay were thinned out.
# B1: TPR 5TU (parent)
# chain: GGAUCUUCUCGAUCUAACAAAAAAGACAAAUCUGCCACAAAGCUUGAGAGCAUCUUCGGAUGCAGAGGCGGCAGCCUUCGGUGGCGCGAUAGCGCCAACGUUCUCAACUAUGACACGCAAAACGCGUGCUCCGUUGAAUGGAGUUUAUCAUG
# Variants of: B1
# Assay: polymerase ribozyme fitness, log enrichment relative to wild type (log ratio); higher = more active; in vitro selection for triplet polymerase activity
# Summary of the method: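 PCR was used to build mutant libraries for each subunit of a heterodimeric triplet polymerase ribozyme, which were then transcribed. A single in vitro selection round, in triplicate, used a frozen incubation at −7 °C and recovered extended constructs by gel excision, streptavidin beads and RT-PCR. Fitness is the logarithm of genotype enrichment relative to wild-type enrichment, averaged over replicates with inverse-variance weights. The logarithm is base 2, and after Illumina sequencing only genotypes with ≥10 input reads and ≥1 read per output were kept.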
row,Variant,polymerase ribozyme fitness (log ratio)
1,A89G A121G C131G,-3.53
2,G92C C114U U151G,-4.12
3,G92A C103U C116U A121G,-3.47
4,G88A C96U C108G,≤ -4.2
5,G88A G126A,-3.7
6,C87U G136U,-2.59
7,G92U G136A,0.353
8,C93A G140U,-3.85
9,C93A U109G C123G,-3.37
10,C87U U102G A138C,≤ -4.2
11,A91C U109C,≤ -4.2
12,A89U G92U A121C G140U,-3.5
13,A89G C95A,-2.08
14,A91U U148C,-4.1
15,G92U C125A,-1.82
16,C87U A113U A122G G136U U144C,-3.67
17,C87U A91U C96U,≤ -4.2
18,A91U C125A,-3.87
19,G88A C118U G141U U144A,≤ -4.2
20,C93A U135C,-3.56
21,G88A A97G U111G,≤ -4.2

row,Variant,polymerase ribozyme fitness (log ratio)
1,A91U A97G A122U A147U,≤ -4.2
2,G92U C103G,-3.77
3,G92U C105G C125U A137G,-3.35
4,G92U A147U,0.301
5,C87U A150G,-1.2
6,A89G C108U,-3.7
7,G92A U145G,-2.54
8,G92U C149U,-1.29
9,A89G C95A A137C,-4.09
10,G88C U144G,-3.7
11,C93A A97G A113G G124U,-4.12
12,A89U A115G,-1.6
13,G92U A122U G141C,-0.707
14,G88A C96U,-3.43
15,C87U G88C,-3.83
16,A89G A119C,-1.39
17,G92A G141U,-1.8
18,G88A C105U,-3.72
19,C87U A113U C116U,-1.99
20,C93A U127G,-4.05
21,G92C C95U,-0.22

row,Variant,polymerase ribozyme fitness (log ratio)
1,C87U C125U,-2.13
2,C87U C125G,-1.53
3,G88C C105A G117C G141A A147U,≤ -4.2
4,A91G A147U,-1.52
5,G88U C132U,-3.92
6,A91G C105U,-1.66
7,A91C G100U,≤ -4.2
8,A89C U127A,-4.16
9,G88U G92C G117U,-3.57
10,G92C U127G,-3.67
11,G88A A97U U102C,≤ -4.2
12,A89G G126C,0.0965
13,A91C A137C A150C U151G,≤ -4.2
14,C93A C103A U135A A138G,≤ -4.2
15,C87U C96U U104C A107U G141U,≤ -4.2
16,C93G A98C A120U,-3.94
17,C93A G141U,-0.625
18,A91G A106G A150U,-0.616
19,C93A G133C,-4.09
20,G88U C108A G128C C132U A137U,≤ -4.2
21,A89C G92U C96A A106G A107U U139A,≤ -4.2

row,Variant,polymerase ribozyme fitness (log ratio)
1,U90A C105G,≤ -4.2
2,C87U A142U,-0.783
3,G92A A147U,-1.84
4,C93G,-3.35
5,C93A,-2.17
6,A91G G141U,-1.92
7,A91G G141C,-2.86
8,C93A A122U,-2.45
9,U90G G141U,≤ -4.2
10,C87U U109G U127C U135A,-4
11,A91U G94U C96G A115G G141C,≤ -4.2
12,G92A C114U,-3.92
13,C87U U104A,-0.828
14,A91U U111G U127C,≤ -4.2
15,G88U A97G A98U G133U A150U,≤ -4.2
16,G92C A119G,0.0407
17,A91U U111G U151G,≤ -4.2
18,C93A G128C C132G A138G U148G,≤ -4.2
19,A91U G140C,≤ -4.2
20,A91U A121U U144A,≤ -4.2
